Seven molecules from patent US20200054723A1 (ALLAKOS, published 2020) can be followed below.

“And” between values parts separate entries of the source, which are not always exact repeats. Equal entries are not always repeated.

For experiment [1], the target named is human Siglec-8 on human cells (eosinophils, mast cells) (human, UniProt Q9NYZ4 17-499). Kind of experiment: cell-based or functional assay.
In experiment [2] the target is T1, recombinant human Siglec-8 extracellular domain (ECD) (human, UniProt Q9NYZ4 17-363).
T1 construct: extracellular domain; also called Siglec-8 ECD; full Siglec-8 ECD
As to the kind of experiment: ELISA, coated Siglec-8 ECD.

Experiment [3] has as its target T2, Dimeric Siglec-8 (human Siglec-8 ECD protein) (human, UniProt Q9NYZ4 17-363).
T2 construct: extracellular domain; Analyte of the Biacore avidity assay
Kind of experiment: SPR (Biacore), antibody captured, dimeric Siglec-8 as analyte, 1:1 global fit (avidity). The method, then:
Antibody avidity determination was carried out by SPR analysis using a Biacore T200. Binding of human Siglec-8 ECD protein to mouse, chimeric and humanized anti-Siglec-8 antibodies was measured on a […]. The capture antibodies (goat-anti-human-Fc and goat-anti-mouse-Fc from Jackson Immunoresearch) were immobilized on a CM5 chip according to manufacturer's protocol (Biacore, GE). Flow-cell 1, 2 and 3 were immobilized with anti-human, and flow cell 4 with anti-mouse antibodies. The assay was conducted at 25° C., at a flow rate of […]. Assay buffer was 20 mM Tris-HCl pH 8.3, 150 mM Sodium Chloride, 0.05% Polysorbate 20, 10% glycerol, 0.1% BSA, made in ultrapure water. Dimeric Siglec-8 (impurities of monomeric and oligomeric Siglec-8 were removed by size-exclusion chromatography) was diluted in assay buffer from 15 nM to […] with 2× dilutions. Antibodies were captured to a change of approximately 120 RU. Six-minute high performance injections were conducted, followed by 120-minute dissociations. Flow cells were regenerated with 50 mM glycine pH 1.5. Results were double blanked with an empty reference cell and multiple assay buffer injections, and analyzed with 1:1 global fit parameters.

Experiment [4] deals with T3, Siglec-8-Fc tagged protein (human Siglec-8 extracellular domain fused to an immunoglobulin Fc region) (human).
T3 construct: also called Siglec-8 Fc fusion protein
Kind of experiment: BLI (Octet Red 384), Siglec-8-Fc on anti-human capture sensors, Fab in solution. The method, then: Antibody affinity determination was also carried out by bio-layer interferometry (ForteBio). Binding of mouse, chimeric and humanized anti-Siglec-8 antibody Fab fragments to human Siglec-8 protein was measured on a ForteBio Octet Red 384. The assay was conducted at 25° C., at an RPM of 1000 in assay buffer. […] Fab fragments (antibodies were digested with Thermo-Pierce immobilized papain per manufacturer's specifications) were diluted in assay buffer from 50 nM to 1.56 nM with 2× dilutions. The Siglec-8-Fc tagged protein was immobilized on Anti-Human-Capture sensors at 100 nM in assay buffer for 3 min to a change in nm of approximately 1.2. Two-minute associations were conducted, followed by 10-minute dissociations. Results were blanked with an empty reference AHC sensor, and analyzed in ForteBio analysis software with 1:1 global fit parameters.

Experiment [5] addresses T1, recombinant human Siglec-8 …. As to the kind of experiment: ELISA, coated Siglec-8 ECD. This is another data set of the same source.

Sequence of human Siglec-8 on human cells (eosinophils, mast cells) (Q9NYZ4 17-499): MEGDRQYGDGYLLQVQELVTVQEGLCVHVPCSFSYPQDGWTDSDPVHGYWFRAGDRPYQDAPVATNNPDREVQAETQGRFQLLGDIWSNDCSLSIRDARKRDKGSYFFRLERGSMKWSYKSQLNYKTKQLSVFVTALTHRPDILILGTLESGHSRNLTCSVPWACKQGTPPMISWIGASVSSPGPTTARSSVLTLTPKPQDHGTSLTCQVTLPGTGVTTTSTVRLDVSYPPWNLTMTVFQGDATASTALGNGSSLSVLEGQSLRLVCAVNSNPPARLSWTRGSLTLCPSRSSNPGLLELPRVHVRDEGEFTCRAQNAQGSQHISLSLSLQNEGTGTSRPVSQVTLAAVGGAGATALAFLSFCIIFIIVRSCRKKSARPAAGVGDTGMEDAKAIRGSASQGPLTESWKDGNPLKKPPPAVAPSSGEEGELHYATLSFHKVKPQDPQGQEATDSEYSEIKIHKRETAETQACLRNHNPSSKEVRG
T3 sequence (chain, as listed by the source limits assumed): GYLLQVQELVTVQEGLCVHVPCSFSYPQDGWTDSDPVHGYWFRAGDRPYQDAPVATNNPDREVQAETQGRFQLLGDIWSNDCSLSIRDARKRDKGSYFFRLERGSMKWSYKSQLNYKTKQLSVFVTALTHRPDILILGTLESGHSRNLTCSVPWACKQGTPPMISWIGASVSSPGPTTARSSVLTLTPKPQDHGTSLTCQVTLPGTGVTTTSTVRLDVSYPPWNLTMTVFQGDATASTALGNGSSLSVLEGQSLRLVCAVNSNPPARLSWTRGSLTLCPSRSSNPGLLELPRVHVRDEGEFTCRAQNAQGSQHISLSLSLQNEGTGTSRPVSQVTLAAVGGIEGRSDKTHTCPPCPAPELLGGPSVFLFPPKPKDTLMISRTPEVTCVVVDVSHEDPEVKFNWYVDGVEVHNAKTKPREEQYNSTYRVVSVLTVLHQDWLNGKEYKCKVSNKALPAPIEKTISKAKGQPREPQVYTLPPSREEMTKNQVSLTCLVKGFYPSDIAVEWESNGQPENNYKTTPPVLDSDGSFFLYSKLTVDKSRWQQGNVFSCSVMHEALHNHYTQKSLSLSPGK
T2 sequence (Q9NYZ4 17-363): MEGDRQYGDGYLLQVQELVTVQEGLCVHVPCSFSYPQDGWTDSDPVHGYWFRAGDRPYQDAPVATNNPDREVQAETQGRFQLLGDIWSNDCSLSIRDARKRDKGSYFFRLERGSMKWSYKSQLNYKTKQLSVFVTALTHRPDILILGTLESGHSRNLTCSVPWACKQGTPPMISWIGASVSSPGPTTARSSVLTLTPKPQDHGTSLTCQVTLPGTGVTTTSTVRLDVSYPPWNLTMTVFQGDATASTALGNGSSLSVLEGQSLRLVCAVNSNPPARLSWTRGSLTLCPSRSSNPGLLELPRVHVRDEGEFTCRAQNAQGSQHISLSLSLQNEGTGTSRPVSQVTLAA
T1 sequence (Q9NYZ4 17-363): as above

B1: HEKF IgG1 antibody (antibody, V domains shown)
VH: EVQLVESGGGLVQPGGSLRLSCAASGFSLTIYGAHWVRQAPGKGLEWVGVIWAGGSTNYNSALMSRFTISKDNSKNTVYLQMNSLRAEDTAVYYCARDGSSPYYYSMEYWGQGTTVTVSS
VL: EIVLTQSPATLSLSPGERATLSCSATSSVSYMHWFQQKPGQAPRLLIYSTSNLASGIPARFSGSGSGTDYTLTISSLEPEDFAVYYCQQRSSYPFTFGPGTKLDIKR
notes: also called HEKF T2
B1: the “Mean EC50 (ng/ml) for eosinophil depletion” value (“Mean EC50 (ng/ml)” for short) in experiment [1] worked out at 6.7 ng/mL. The EC50 in experiment [2] is 0.064 nM and 0.074 nM and 0.052 nM and 0.097 nM. In experiment [3], this molecule displayed a Kd of 0.021 nM, an off-rate (koff) of 1.4e-05 s⁻¹ and an on-rate (kon) of 678000 M⁻¹ s⁻¹.

B2: HEKAmut IgG1 antibody (antibody, V domains shown)
VH: EVQLVESGGGLVQPGGSLRLSCAASGFSLTIYGAHWVRQAPGKGLEWVGVIWAGGSTNYNSALMSRFTISKDNSKNTVYLQMNSLRAEDTAVYYCARDGSSPYYYSMEYWGQGTTVTVSS
VL: EIVLTQSPATLSLSPGERATLSCSATSSVSYMHWFQQKPGQAPRLLIYSTSNLASGIPARFSGSGSGTDFTLTISSLEPEDFAVYYCQQRSSYPYTFGPGTKLDIK
B2: the “Mean EC50 (ng/ml)” value in experiment [1] is 43.3 ng/mL.

B3: HEKF Fab fragment (Fab)
VH: EVQLVESGGGLVQPGGSLRLSCAASGFSLTIYGAHWVRQAPGKGLEWVGVIWAGGSTNYNSALMSRFTISKDNSKNTVYLQMNSLRAEDTAVYYCARDGSSPYYYSMEYWGQGTTVTVSS
light: EIVLTQSPATLSLSPGERATLSCSATSSVSYMHWFQQKPGQAPRLLIYSTSNLASGIPARFSGSGSGTDYTLTISSLEPEDFAVYYCQQRSSYPFTFGPGTKLDIKRTVAAPSVFIFPPSDEQLKSGTASVVCLLNNFYPREAKVQWKVDNALQSGNSQESVTEQDSKDSTYSLSSTLTLSKADYEKHKVYACEVTHQGLSSPVTKSFNRGEC
notes: Fab made by papain digestion
In experiment [4], B3 gave a Kd of 0.592 nM, a koff of 0.000545 s⁻¹ and a kon of 920000 M⁻¹ s⁻¹.

B4: HEKFmut (antibody, human IgG1, V domains shown)
VH: EVQLVESGGGLVQPGGSLRLSCAASGFSLTIYGAHWVRQAPGKGLEWVGVIWAGGSTNYNSALMSRFTISKDNSKNTVYLQMNSLRAEDTAVYYCARDGSSPYYYSMEYWGQGTTVTVSS
VL: EIVLTQSPATLSLSPGERATLSCSATSSVSYMHWFQQKPGQAPRLLIYSTSNLASGIPARFSGSGSGTDYTLTISSLEPEDFAVYYCQQRSSYPYTFGPGTKLDIK
notes: human IgG1/kappa; also called HEKFmut IgG1
Turning to B4, the “Mean EC50 (ng/ml)” value in experiment [1] is 6.9 ng/mL. Also, the 50% effective concentration (EC50) in experiment [2] is 0.072 nM.

B5: HEKA IgG4 antibody (antibody)
heavy: not shown
light: EIVLTQSPATLSLSPGERATLSCSATSSVSYMHWFQQKPGQAPRLLIYSTSNLASGIPARFSGSGSGTDFTLTISSLEPEDFAVYYCQQRSSYPFTFGPGTKLDIKRTVAAPSVFIFPPSDEQLKSGTASVVCLLNNFYPREAKVQWKVDNALQSGNSQESVTEQDSKDSTYSLSSTLTLSKADYEKHKVYACEVTHQGLSSPVTKSFNRGEC
For the molecule B5, the “Mean EC50 (ng/ml)” value in experiment [1] was determined as 3.9 ng/mL.

B6: HA2KD (antibody, human IgG1, V domains shown)
VH: QVQLQESGPGLVKPSETLSLTCTVSGGSISIYGAHWIRQPPGKGLEWIGVIWAGGSTNYNSALMSRVTISVDTSKNQFSLKLSSVTAADTAVYYCARDGSSPYYYSMEYWGQGTLVTVSS
VL: EIVLTQSPATLSLSPGERATLSCSATSSVSYMHWFQQKPGQAPRLWIYSTSNLASGIPARFSGSGSGTDFTLTISSLEPEDFAVYYCQQRSSYPFTFGPGTKLDIK
notes: human IgG1/kappa
As for B6, the binding result in experiment [5] is recorded as “no binding”.

B7: HA2KE (antibody, human IgG1, V domains shown)
VH: QVQLQESGPGLVKPSETLSLTCTVSGGSISIYGAHWIRQPPGKGLEWIGVIWAGGSTNYNSALMSRVTISVDTSKNQFSLKLSSVTAADTAVYYCARDGSSPYYYSMEYWGQGTLVTVSS
VL: EIVLTQSPATLSLSPGERATLSCSATSSVSYMHWFQQKPGQAPRLLIYSTSNLASGVPARFSGSGSGTDFTLTISSLEPEDFAVYYCQQRSSYPFTFGPGTKLDIK
notes: human IgG1/kappa
On to B7, for which, in experiment [5], the binding result is recorded as “no binding”.
